Several values for one entry are separate records, joined by “and”; a condition that tells them apart may be missing. Equal entries are not always repeated.
System: antibody to BTG coupled to Sepharose 4B
Assay: Radioimmunoassay for platelet β thromboglobulin (BTG), Sepharose 4B-coupled antibody separated by sucrose layering
Format: binding
Protocol: After primary incubation with ^125 I BTG, 1 ml aliquots of standard BTG of known concentrations in the range from 0.2 to 25.6 µg/ml are incubated in 75 × 17 mm sample tubes with an antibody to BTG coupled to Sepharose 4B. After incubation the Sepharose 4B and supernatant are separated by the method of the invention as follows.
1 ml of diluent is added to each sample tube followed by 6 ml of 10% w/v sucrose in water. The sucrose solution is added over a period of about 15 seconds through a stainless steel probe by means of a peristaltic pump. The outlet of the probe is positioned about 0.5 cm from the bottom of the sample tube, and the sucrose solution forms a discrete layer beneath the incubate. In this way the sucrose addition is carried out in a substantially non-turbulent manner. The sample tubes are then left to stand for about 60 minutes during which time the Sepharose 4B together with bound BTG settles out of the incubate into the sucrose solution forming a deposit at the bottom of each tube.
Each sample tube, in turn, is then placed in an auto-γ counter (Wallac Instruments Ltd) modified as shown in FIG. 1 and counted for a period of 49.9 seconds (this being the period required to yield 10,000 counts from the total amount of ^125 I-BTG added to each tube). The sample tubes are then left to stand for a further 16 hours, and each sample tube is again counted. The results obtained are given in Table I, dividing the counts obtained by 100 giving the results in terms of the percentage of the total ^125 I-BTG which has been bound in each case.
With reference to FIG. 1 the γ-counter has a well type detector into which the sample tube 1 enters. The detector is modified by placing a 2.5 cm length of plastic tube 2 in the bottom of the well and adding an annular disc 3 of lead screening material beneath customary annular plastic disc spill shield 4. In such an arrangement the source which is to be counted, the bound ^125 I BTG linked to the deposit of Sepharose 4B 5 at the bottom of the tube 1, is well within the detector. The free ^125 I BTG present in the 2 ml layer of aqueous incubate 6 is separated from the detector by the intervening 6 ml layer 7 of 10% w/v sucrose solution, and also the detector is shielded to a large extent against stray radiation from the free fraction by the disc 3 of lead screening material. For all intents and purposes the detector "sees" only radiation from the bound and not from the free fraction.

[1] = 0 μg standard BTG, A after 1 hr. standing
[2] = 0 μg standard BTG, B after 17 hrs. standing
[3] = Controls without antibody, A after 1 hr. standing
[4] = Controls without antibody, B after 17 hrs. standing
[5] = 0.2 μg standard BTG, A after 1 hr. standing
[6] = 0.2 μg standard BTG, B after 17 hrs. standing
[7] = 0.4 μg standard BTG, A after 1 hr. standing
[8] = 0.4 μg standard BTG, B after 17 hrs. standing
[9] = 0.8 μg standard BTG, A after 1 hr. standing
[10] = 0.8 μg standard BTG, B after 17 hrs. standing
[11] = 1.6 μg standard BTG, A after 1 hr. standing
[12] = 1.6 μg standard BTG, B after 17 hrs. standing
[13] = 3.2 μg standard BTG, A after 1 hr. standing
[14] = 3.2 μg standard BTG, B after 17 hrs. standing
[15] = 6.4 μg standard BTG, A after 1 hr. standing
[16] = 6.4 μg standard BTG, B after 17 hrs. standing
[17] = 12.8 μg standard BTG, A after 1 hr. standing
[18] = 12.8 μg standard BTG, B after 17 hrs. standing
[19] = 25.6 μg standard BTG, A after 1 hr. standing
[20] = 25.6 μg standard BTG, B after 17 hrs. standing

B1: ^125 I-BTG: radioiodinated BTG tracer of the radioimmunoassay (protein, UniProt P02775 48-128, looked up)
Beta-thromboglobulin: GKEESLDSDLYAELRCMCIKTTSGIHPKNIQSLEVIGKGTHCNQVEVIATLKDGRKICLDPDAPRIKKIVQKKLAGDESAD
modifications: Beta-thromboglobulin 125I label
notes: radioiodinated BTG tracer of the radioimmunoassay
B1 was tested, and the “% bound (of total ^125 I-BTG)” value [1] was 45.7%, the “Counts (in 49.9 sec)” value [1] was 4617 counts and 4492 counts and 4581 counts and 4599 counts and the “% bound (of total ^125 I-BTG)” value [2] was 45.1%. The “Counts (in 49.9 sec)” value [2] was 4584 counts and 4474 counts and 4503 counts and 4496 counts, the “% bound (of total ^125 I-BTG)” value [3] was 1.5% and the “Counts (in 49.9 sec)” value [3] was 133 counts and 180 counts. The “% bound (of total ^125 I-BTG)” value [4] was 1.5% and the “Counts (in 49.9 sec)” value [4] was 160 counts and 149 counts.

B2: platelet β thromboglobulin (protein, UniProt P02775 48-128, looked up)
Beta-thromboglobulin: B1 Beta-thromboglobulin
modifications: Beta-thromboglobulin
notes: standard BTG of known concentrations
For B2, the “% bound (of total ^125 I-BTG)” value [5] was 32.3%, the “Counts (in 49.9 sec)” value [5] was 3061 counts and 3409 counts and the “% bound (of total ^125 I-BTG)” value [6] was 31.3%. For the same molecule, the “Counts (in 49.9 sec)” value [6] was 3110 counts and 3154 counts, the “% bound (of total ^125 I-BTG)” value [7] was 27.2% and the “Counts (in 49.9 sec)” value [7] was 2657 counts and 2784 counts. For the same molecule, the “% bound (of total ^125 I-BTG)” value [8] was 27.3%, the “Counts (in 49.9 sec)” value [8] was 2059 counts and 2816 counts and the “% bound (of total ^125 I-BTG)” value [9] was 22.0%. For the same molecule, the “Counts (in 49.9 sec)” value [9] was 2117 counts and 2286 counts, the “% bound (of total ^125 I-BTG)” value [10] was 20.9% and the “Counts (in 49.9 sec)” value [10] was 2059 counts and 2129 counts. The “% bound (of total ^125 I-BTG)” value [11] was 15.1%, the “Counts (in 49.9 sec)” value [11] was 1469 counts and 1552 counts and the “% bound (of total ^125 I-BTG)” value [12] was 14.5%. The “Counts (in 49.9 sec)” value [12] was 1451 counts and 1447 counts, the “% bound (of total ^125 I-BTG)” value [13] was 10.4% and the “Counts (in 49.9 sec)” value [13] was 1103 counts and 986 counts. The “% bound (of total ^125 I-BTG)” value [14] was 9.9%, the “Counts (in 49.9 sec)” value [14] was 979 counts and 1001 counts and the “% bound (of total ^125 I-BTG)” value [15] was 7.1%. For the same molecule, the “Counts (in 49.9 sec)” value [15] was 706 counts and 721 counts, the “% bound (of total ^125 I-BTG)” value [16] was 6.6% and the “Counts (in 49.9 sec)” value [16] was 650 counts and 665 counts. For the same molecule, the “% bound (of total ^125 I-BTG)” value [17] was 4.8%, the “Counts (in 49.9 sec)” value [17] was 465 counts and 495 counts and the “% bound (of total ^125 I-BTG)” value [18] was 4.5%. For the same molecule, the “Counts (in 49.9 sec)” value [18] was 440 counts and 458 counts, the “% bound (of total ^125 I-BTG)” value [19] was 3.5% and the “Counts (in 49.9 sec)” value [19] was 346 counts and 357 counts. The “% bound (of total ^125 I-BTG)” value [20] was 3.3% and the “Counts (in 49.9 sec)” value [20] was 337 counts and 321 counts.

— patent US4125375A, “Separation of solid and liquid components of mixtures” (National Research Development Corporation, priority 1975, dated 1978)
